Data on two molecules can be found in patent US20250075190A1, “DE NOVO DESIGNED LUCIFERASE” (UNIVERSITY OF WASHINGTON, priority 2022, published 2025).

For series [1], the target named is T1, native Renilla reniformis luciferase (RLuc) (Renilla reniformis, UniProt P27652).
T1 construct: host and tag of RLuc not clearly stated
T1 sequence (P27652 1-311): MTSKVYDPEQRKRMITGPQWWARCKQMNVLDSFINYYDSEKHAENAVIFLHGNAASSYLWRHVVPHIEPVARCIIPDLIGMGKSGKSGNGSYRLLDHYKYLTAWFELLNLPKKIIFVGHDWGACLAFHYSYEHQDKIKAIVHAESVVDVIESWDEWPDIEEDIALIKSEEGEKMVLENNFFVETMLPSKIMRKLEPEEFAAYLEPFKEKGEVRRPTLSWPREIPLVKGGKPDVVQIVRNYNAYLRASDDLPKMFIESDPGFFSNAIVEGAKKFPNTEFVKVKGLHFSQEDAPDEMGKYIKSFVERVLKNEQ
Put plainly: Michaelis-Menten kinetics of native Renilla luciferase (RLuc) with CTZ. Conditions: substrate CTZ; Table 3. The format is biochemical. The text has this:
Synthetic genes and oligonucleotides were purchased from Integrated DNA Technologies or GenScript. The synthetic gene was inserted between NdeI and XhoI sites of a pET29b+ vector, containing an N-terminal hexahistidine tag followed by a TEV protease cleavage site and a C-terminal stop codon. Restriction endonucleases, Q5 PCR polymerase, and T4 ligase were purchased from NEB. Plasmid DNA, PCR products, or digested fragments were purified by Qiagen DNA purification kits. DNA sequences were analyzed by Genewiz. Coelenterazine (CTZ) was purchased from Gold Biotechnology. Diphenylterazine (DTZ), pyridyl diphenylterazine (8pyDTZ), and Furimazine (FRZ) were purchased from MedChemExpress. […] DNA and protein concentrations were determined by a NanoDrop™ small-volume 8 channel UV/vis spectrometer. […] All luminescence measurements were acquired by a Biotek Synergy Neo2T™ Multi-Mode Plate Reader. To convert relative arbitrary unit (RLU) to the number of photons, Neo2 plate reader was calibrated by determining the chemiluminescence of luminol with known quantum yield in the presence of horseradish peroxidase and hydrogen peroxide in K2CO3 aqueous solution as previously described^45. SDS PAGE and luminescence images were captured by a Bio-Rad ChemiDocT™ XRS+. Images were analyzed using the Fiji image analysis software. […]

The nature of series [2]: Luciferase activities of re-designed sequences based on LuxSit-i (Table 1). The format is biochemical. The settings on record: LuxSit-f and re-designed sequences based on LuxSit-i (Table 1). The text has this:
In another embodiment, the proteins comprise an amino acid sequence at least 30%, 35%, 40%, 45%, 50%, 55%, 60%, 65%, 70%, 75%, 80%, 85%, 90%, 91%, 92%, 93%, 94%, 95%, 96%, 97%, 98%, 99%, or 100% identical to the amino acid selected from the group consisting of SEQ ID NO:1-181, as shown in Table 1. SEQ ID NO:5-181 in Table 1 are re-designed amino acid sequences based on LuxSit-i (SEQ ID NO:2), with their luciferase activities shown.

A short description of series [3]: Luminescence decay curves of LuxSit-i in various pH buffers. The format is biochemical. As to the method:
(§1) FIG. 10. Additional characterization of LuxSit variants. (a) Normalized emission kinetics of 15,000 intact HeLa cells expressing LuxSit-i, 100 nM purified LuxSit-i, or 100 nM purified LuxSit-f in the presence of 50 μM DTZ. The more extended emission kinetics in HeLa cells is likely due to the diffusion rate of DTZ across cell membranes. […] (c) Luminescent quantum yield was estimated from the integrated luminescence signal until completely converting 125 pmol substrates to photons in the presence of 50 nM corresponding luciferase (see Methods). All data points were plotted as the average of triplicate measurements.

Series [4] can be described thus: Luminescent quantum yield of LuxSit variants. Format: biochemical. The settings on record: consuming 125 pmol of DTZ in PBS with 50 nM recombinant luciferase; estimated relative to reported quantum yield of RLuc; mean ± s.d., n = 3. The procedure:
as §1
For Michaelis-Menten kinetics measurements, 25 μL of serial diluted DTZ substrate in Tris pH 8.0 buffer was added into the wells of a white 96-well half-area microplate containing 25 μL of purified luciferases (final enzyme concentration: 100 nM; substrate concentration: 0.78 to 50 μM). […] The luminescence signals were monitored until the reactions were completed (0.1 s integration and measurements were taken every 5 s for a total of 40 min). […] In vitro luminescence activity measurements of LuxSit-i expressing HEK293T or HeLa cells were done similarly as 15,000 intact cells or lysates were used in the assay instead of purified luciferases. […] Data were shown as the total luminescence signal over the first 10 min. […]

A short description of series [5]: Substrate specificity on coelenterazine substrate analogs. The format is biochemical. The procedure: FIG. 4. High substrate specificity of designed luciferases allows multiplexed bioassay. (a) Chemical structures of Coelenterazine substrate analogs. (b) Activity of LuxSit-i on selected luciferin substrates. Luminescence image (top) and signal quantification (bottom) of the indicated substrate in the presence of 100 nM LuxSit-i. LuxSit-i has high specificity for the design target substrate, DTZ. (c) Heatmap visualization of the substrate specificity of LuxSit-i. Renilla luciferase (RLuc), Gaussia luciferase (GLuc), engineered NLuc from Oplophorus luciferase. […] (d) Luminescence emission spectrum of LuxSit-i/DTZ and RLuc/PP-CTZ can be spectrally resolved by 528/20 and 390/35 filters (shown in dashed bars) and only recognize the cognate substrate. (e) Schematic of the multiplex luciferase assay. […] (f-g) Luminescence signals from cells can be measured under either substrate-resolved or spectrally resolved methods by a plate reader. (f) For the substrate-resolved method, luminescence intensity was recorded without a filter after adding either PP-CTZ or DTZ. […] Luminescence signals were acquired from the lysate of 15,000 cells in CelLytic™ M reagent while CyOFP fluorescence signal was used to normalize cell numbers and transfection efficiencies. […]

The nature of series [6]: Circular dichroism spectra and thermal denaturation. The settings on record: 220 nm, 25° C. to 95° C. The format is physicochemical. The text has this:
Synthetic genes and oligonucleotides were purchased from Integrated DNA Technologies or GenScript. The synthetic gene was inserted between NdeI and XhoI sites of a pET29b+ vector, containing an N-terminal hexahistidine tag followed by a TEV protease cleavage site and a C-terminal stop codon. Restriction endonucleases, Q5 PCR polymerase, and T4 ligase were purchased from NEB. Plasmid DNA, PCR products, or digested fragments were purified by Qiagen DNA purification kits. DNA sequences were analyzed by Genewiz. Coelenterazine (CTZ) was purchased from Gold Biotechnology. Diphenylterazine (DTZ), pyridyl diphenylterazine (8pyDTZ), and Furimazine (FRZ) were purchased from MedChemExpress. […] DNA and protein concentrations were determined by a NanoDrop™ small-volume 8 channel UV/vis spectrometer. […] All luminescence measurements were acquired by a Biotek Synergy Neo2T™ Multi-Mode Plate Reader. To convert relative arbitrary unit (RLU) to the number of photons, Neo2 plate reader was calibrated by determining the chemiluminescence of luminol with known quantum yield in the presence of horseradish peroxidase and hydrogen peroxide in K2CO3 aqueous solution as previously described^45. SDS PAGE and luminescence images were captured by a Bio-Rad ChemiDocT™ XRS+. Images were analyzed using the Fiji image analysis software.
Purified protein samples were prepared at 15 μM in pH 7.4 10 mM phosphate buffer. Spectra from 190 nm to 260 nm were recorded at 25° C., 50° C., 75° C., 95° C., and after cooling back to 25° C. Thermal denaturation was monitored at 220 nm from 25° C. to 95° C. […]

Series [7] is described as follows: Michaelis-Menten kinetics measurements of purified luciferases. The format is biochemical. As to the method: For Michaelis-Menten kinetics measurements, 25 μL of serial diluted DTZ substrate in Tris pH 8.0 buffer was added into the wells of a white 96-well half-area microplate containing 25 μL of purified luciferases (final enzyme concentration: 100 nM; substrate concentration: 0.78 to 50 μM). Measurements were taken every 1 min (0.1 s integration and 10 s shaking between each interval) for a total of 20 min. Initial velocities were estimated as the average of the light intensities from the first three data points to fit the Michaelis-Menten equation. All relative arbitrary unit (RLU) per second values were converted to photon/s by the luminol-H2O2—HRP calibration method^45. Following the equation: Imax=LQY×kcat×[E], Imax is the maximal photon flux (photon s^−1), [E] is the total enzyme concentration, and V ax is the maximum photon flux per molecule (photon s^−1 molecule^−1) from the fitting of the Michaelis-Menten equation. To determine the luminescent quantum yields, 25 μL of 5 μM individual substrate in PBS was injected into 25 μL PBS containing 100 nM corresponding luciferase. DTZ was used for all LuxSit variants while CTZ was used as the substrate of native RLuc. The luminescence signals were monitored until the reactions were completed (0.1 s integration and measurements were taken every 5 s for a total of 40 min). […] To record emission spectra, 25 μL of 50 μM DTZ in PBS were injected into 25 μL of 200 nM pure luciferases and the emission spectra were collected with 0.1 s integration and 2 nm increments from 300 to 700 num. In vitro luminescence activity measurements of LuxSit-i expressing HEK293T or HeLa cells were done similarly as 15,000 intact cells or lysates were used in the assay instead of purified luciferases. To evaluate the substrate specificity, 25 μL of 50 μM substrate analogs in PBS were added to 25 μL of 200 nM indicated luciferases, and the signals were recorded over 20 min. Data were shown as the total luminescence signal over the first 10 min. We normalized the data by setting the highest emission substrate at 100%.

Regarding `Oc1ccc(Cc2nc3c(Cc4ccccc4)nc(-c4ccc(O)cc4)cn3c2O)cc1` [CTZ, Coelenterazine], the Vmax in series [1] turned out to be 0.26 photon s^−1 molecule^−1.

B1: LuxSit-i: LuxSit variant R60S/A96L/M110V, SEQ ID NO:2, named for high brightness (protein)
chain: MSEEQIRQFLRRFYEALDSGDADTAASLFHPGVTIHLWDGVTFTSREEFREWFERLFSTSKDAQREIKSLEVRGDTVEVHVQLHATHNGQKHTVDLTHHWHFRGNRVTEVRVHINPTG
modifications: VARIANT 1 optionally absent; VARIANT 118 optionally absent
In the case of B1, in series [2], the Activity is recorded as 763.6. The “pH dependence of DTZ luminescent reaction” value in series [3] is recorded as “pH-dependent”. The “LQY (luminescent quantum yield)” value in series [4] is reported as 14.5 ± 1.8%. Also, in series [5], the “selectivity for DTZ over bis-CTZ” value came to 50 fold. In addition, the “higher photon flux over LuxSit” value (25 μM DTZ) was “more than 100 fold”. In addition, the Relative emission intensity (integrated luminescence intensity over the first 20 min, normalized to LuxSit, 25 μM DTZ in Tris pH 8.0 buffer) worked out at 153. Further, in series [6], the “thermal stability (CD melting)” value is “thermostable”. The “photon flux (photon s^−1) greater than native Renilla reniformis luciferase (RLuc)” value in series [7] stood at 38%.
